Data on 1 molecule can be found in article PMC6238616.

The assay deals with SMN1, wild type, LUMIER fusion, Q16637. Briefly: LUMIER. As to conditions: chain shown with the change;; parent: est. 51000; read off a plot.
Sequence of SMN1, wild type, LUMIER fusion, Q16637 (Q16637 whole entry, the tested form may be a part): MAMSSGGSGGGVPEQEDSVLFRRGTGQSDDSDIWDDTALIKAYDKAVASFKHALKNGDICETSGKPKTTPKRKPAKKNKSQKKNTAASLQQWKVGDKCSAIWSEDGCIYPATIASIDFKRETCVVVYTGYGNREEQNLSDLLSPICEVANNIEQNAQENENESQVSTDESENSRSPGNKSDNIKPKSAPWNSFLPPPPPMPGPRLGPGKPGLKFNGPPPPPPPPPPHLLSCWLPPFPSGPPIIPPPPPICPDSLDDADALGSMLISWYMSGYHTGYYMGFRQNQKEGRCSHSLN

B1: PHF1, wild type, LUMIER fusion, O43189 Y47A (protein)
chain: MAQPPRLSRSGASSLWDPASPAPTSGPRPRLWEGQDVLARWTDGLLALGTIKKVDSAREVCLVQFEDDSQFLVLWKDISPAALPGEELLCCVCRSETVVPGNRLVSCEKCRHAYHQDCHVPRAPAPGEGEGTSWVCRQCVFAIATKRGGALKKGPYARAMLGMKLSLPYGLKGLDWDAGHLSNRQQSYCYCGGPGEWNLKMLQCRSCLQWFHEACTQCLSKPLLYGDRFYEFECCVCRGGPEKVRRLQLRWVDVAHLVLYHLSVCCKKKYFDFDREILPFTSENWDSLLLGELSDTPKGERSSRLLSALNSHKDRFISGREIKKRKCLFGLHARMPPPVEPPTGDGALTSFPSGQGPGGGVSRPLGKRRRPEPEPLRRRQKGKVEELGPPSAVRNQPEPQEQRERAHLQRALQASVSPPSPSPNQSYQGSSGYNFRPTDARCLPSSPIRMFASFHPSASTAGTSGDSGPPDRSPLELHIGFPTDIPKSAPHSMTASSSSVSSPSPGLPRRSAPPSPLCRSLSPGTGGGVRGGVGYLSRGDPVRVLARRVRPDGSVQYLVEWGGGGIF
Regarding B1, the response was determined as 28000 RU.
